Literature values in article PMC9574052.

Target: oxytocin receptor (Homo sapiens) (UniProt P30559)
UniProt P30559, sequence (P30559 whole entry): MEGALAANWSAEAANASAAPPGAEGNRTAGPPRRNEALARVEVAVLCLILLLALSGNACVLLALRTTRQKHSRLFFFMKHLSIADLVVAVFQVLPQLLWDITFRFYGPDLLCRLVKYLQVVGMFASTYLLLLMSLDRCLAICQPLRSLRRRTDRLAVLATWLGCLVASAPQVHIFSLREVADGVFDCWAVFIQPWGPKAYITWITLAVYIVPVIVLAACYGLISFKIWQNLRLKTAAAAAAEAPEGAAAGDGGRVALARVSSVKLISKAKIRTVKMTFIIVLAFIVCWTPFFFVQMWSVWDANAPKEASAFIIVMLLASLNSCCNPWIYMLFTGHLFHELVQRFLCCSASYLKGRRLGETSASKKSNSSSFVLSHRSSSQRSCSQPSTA

oxytocin, sequence (P01178 whole entry, looked up): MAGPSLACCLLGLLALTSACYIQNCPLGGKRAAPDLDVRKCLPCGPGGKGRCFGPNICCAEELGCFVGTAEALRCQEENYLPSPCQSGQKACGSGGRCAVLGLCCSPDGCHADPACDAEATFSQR

Ki: 0.79 nM
Substance: oxytocin (from UniProt P01178)
